Source: patent US20220411533A1 (Boehringer Ingelheim, published 2022)

T1: human Trop2 recombinantly expressed on HEK293 cells (full-length, C-terminal Myc-DDK-tag) (human, UniProt P09758 27-323)
T1 construct: UniProt P09758 is printed for human TROP2; also called trophoblast cell-surface antigen 2; not shown: C-terminal Myc-DDK-tag of the Origene construct #RC202519
T1 sequence: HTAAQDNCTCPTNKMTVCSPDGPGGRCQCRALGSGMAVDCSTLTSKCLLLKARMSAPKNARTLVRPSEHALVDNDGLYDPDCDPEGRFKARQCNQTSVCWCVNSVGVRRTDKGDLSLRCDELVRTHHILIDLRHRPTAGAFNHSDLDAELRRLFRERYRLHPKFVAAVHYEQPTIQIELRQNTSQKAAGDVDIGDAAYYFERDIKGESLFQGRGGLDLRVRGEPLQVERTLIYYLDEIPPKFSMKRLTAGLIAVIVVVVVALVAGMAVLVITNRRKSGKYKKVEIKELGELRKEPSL


Molecular target: T1, human Trop2 recombinantly expressed on …
Assay: flow cytometry based Scatchard method on HEK293 cells expressing Trop2

| Binder | Kd |
| --- | --- |
| Trop2#7 (antibody, V domains shown) VH: EVQLQQSGPELVKPGASVKMSCRASGYTFTSYAMHWVKQKPGQGLEWIGYINPYNGGTKYNEKFKGRATLTSDKSSSTAYMELSSLTSEDSAVYYCAREGIYYGAWFAYWGQGTLVTVSA VL: DIQMTQSSSSFSVSLGDRVTITCKASEDIYNRLAWFQQKPGNAPRLLISGATSLETGVPSRFRGSRSGKDYTLSITSLQTEDVATYYCQQYWSTWTFGGGTKLEIK | 0.4 nM |
| Trop2#1 (antibody, V domains shown) VH: EVQLQQSGPELLKPGASVKISCKASGYTFTDYTMHWVKQSHGKSLEWIGGIYPNYGDTNYNEKFKDKATLTVDESSSTAYMELRSLTSEDSAVYYCSRKTVLLRLRYFDVWGTGTTVTVSS VL: DIQMTQSPASLSASVGETVTITCRASGNIHNYLAWYQQKQGKSPQLLVYNAITLADGVPSRFSGSGSGTQYSLKINSLQPEDFGSYYCQHFWSTPFTFGSGTKLEIK | 2.2 nM |
| Trop2#5 (antibody, V domains shown) VH: EVQLQQSGPDLVKPGASVKMSCKASGFIFTDYYMNWVKQSHGKSLEWIGYIYPNNGATAYNQKFKGKATLTVDKSSSTAYMELRSLTSEDSAVYYCARESDFYAMDYWGQGTSVTVSS VL: DVVMTQTPLSLPVSLGDQASISCRSSQSLVHSHGNIYLHWYLQKPGLSPKLLIFKVSNRFSGVPDRFSGSGSGTDFTLKISRVEAEDLGVYFCSQSTHVWTFGGGTKLEIK | 0.6 nM |
